Article PMC4135724 (Nature, 2014)

Biological target: the molecule itself
Assay: SEC

B1: Human E-Syt2 (residues 163-634), fragment comprising the SMP, C2A and C2B domains (domain or fragment, UniProt A0FGR8 191-662, looked up)
chain: DTERAEWLNKTVKHMWPFICQFIEKLFRETIEPAVRGANTHLSTFSFTKVDVGQQPLRINGVKVYTENVDKRQIILDLQISFVGNCEIDLEIKRYFCRAGVKSIQIHGTMRVILEPLIGDMPLVGALSIFFLRKPLLEINWTGLTNLLDVPGLNGLSDTIILDIISNYLVLPNRITVPLVSEVQIAQLRFPVPKGVLRIHFIEAQDLQGKDTYLKGLVKGKSDPYGIIRVGNQIFQSRVIKENLSPKWNEVYEALVYEHPGQELEIELFDEDPDKDDFLGSLMIDLIEVEKERLLDEWFTLDEVPKGKLHLRLEWLTLMPNASNLDKVLTDIKADKDQANDGLSSALLILYLDSARNLPSGKKISSNPNPVVQMSVGHKAQESKIRYKTNEPVWEENFTFFIHNPKRQDLEVEVRDEQHQCSLGNLKVPLSQLLTSEDMTVSQRFQLSNSGPNSTIKMKIALRVLHLEKRER
  stoichiometry N: 2
